Data taken from publication PMC5131995.

Target: recombinant human FcγRIIIa (V158) (human) (UniProt P08637)
Assay: SPR

Chain of UniProt P08637 (P08637 17-208): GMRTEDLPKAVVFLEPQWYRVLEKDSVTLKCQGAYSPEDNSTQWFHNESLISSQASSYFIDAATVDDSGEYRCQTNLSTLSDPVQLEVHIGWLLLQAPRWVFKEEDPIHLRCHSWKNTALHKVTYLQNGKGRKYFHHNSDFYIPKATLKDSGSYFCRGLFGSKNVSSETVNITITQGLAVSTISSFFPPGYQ

Substance	Kd [nM]
anti-EGFR hIgG1 chimeric mAb with variant hIgG1-Fc from donor vector phIgG-SDIE (from UniProt P01875)	7.42
anti-EGFR hIgG1 chimeric mAb with variant hIgG1-Fc from donor vector phIgG-mu (from UniProt P01875)	29.4
